Reference: patent US10202469B2, “Sugar chain-attached linker, compound containing sugar chain-attached linker and physiologically active substance or salt thereof, and method for producing same” (Glytech, Inc., priority 2012, dated 2019)
Like-named read-outs stand apart in the source and are kept apart here.

Legend:
[1] = system: cytotoxic T lymphocyte (CTL); conditions: cited from earlier work
[2] = Solubility (μM)
Protocol: (§1) After the centrifugation, the absorbance of the supernatant portion at 280 nm was measured in the microtube. From the obtained value, the concentration was calculated to determine solubility.

[3] = Tracing of hydrolysis behavior in aqueous solution by HPLC (hydrolysis half-life)
Protocol: […] A given amount of each solution was injected to HPLC at appropriate time intervals to trace the hydrolysis reaction. The relative starting material concentration was determined from an HPLC peak area corresponding to the starting material. The relative concentration of the starting material was plotted against incubation time. […] Also, the terminal half-life t1/2 of the starting material was calculated according to the expression t1/2=ln(2)/k (wherein k represents the slope of the linear plot).

[4] = Solubility (μM); remark: listed apart in the source
Protocol: as §1

[5] = Solubility measurement in water (absorbance of supernatant at 280 nm); conditions: 25° C.
Protocol: as §1

[6] = Solubility measurement in 0.1% aqueous acetic acid (AcOH) solution; conditions: aqueous acetic acid solution (0.1% AcOH)
Protocol: as §1

[7] = buffer, pH 4, Hydrolysis half-life, Acetate buffer solution (pH 4.0), 25° C.
[8] = buffer, pH 4, Hydrolysis half-life, Acetate buffer solution (pH 4.0), 37° C.
[9] = buffer, pH 7.4, Hydrolysis half-life, PBS (pH 7.4), 25° C.
[10] = buffer, pH 7.4, Hydrolysis half-life, PBS (pH 7.4), 37° C.

## CC(C)C[C@H](NC(=O)[C@H](CC(C)C)NC(=O)[C@H](C)NC(=O)[C@H](CC(C)C)NC(=O)[C@H](CC(C)C)NC(=O)[C@H](CC(C)C)NC(=O)CNC(=O)[C@H](Cc1c[nH]c2ccccc12)NC(=O)[C@@H](N)CCCNC(=N)N)C(=O)O [compound 10]
[1]
  Ability to induce cytotoxic T lymphocyte (CTL): exhibits the ability to induce cytotoxic T lymphocyte (CTL)

## CC(=O)N[C@@H]1[C@@H](O)[C@H](O[C@@H]2O[C@H](CO)[C@@H](O[C@@H]3O[C@H](CO[C@H]4O[C@H](CO)[C@@H](O)[C@H](O)[C@@H]4O[C@@H]4O[C@H](CO)[C@@H](O[C@@H]5O[C@H](CO)[C@H](O)[C@H](O)[C@H]5O)[C@H](O)[C@H]4NC(C)=O)[C@@H](O)[C@H](O[C@H]4O[C@H](CO)[C@@H](O)[C@H](O)[C@@H]4O[C@@H]4O[C@H](CO)[C@@H](O[C@@H]5O[C@H](CO)[C@H](O)[C@H](O)[C@H]5O)[C@H](O)[C@H]4NC(C)=O)[C@@H]3O)[C@H](O)[C@H]2NC(C)=O)[C@@H](CO)O[C@H]1NC(=O)CSCC(NC(=O)c1ccc(COC(=O)[C@H](CC(C)C)NC(=O)[C@H](CC(C)C)NC(=O)[C@H](C)NC(=O)[C@H](CC(C)C)NC(=O)[C@H](CC(C)C)NC(=O)[C@H](CC(C)C)NC(=O)CNC(=O)[C@H](Cc2c[nH]c3ccccc23)NC(=O)[C@@H](N)CCCNC(=N)N)cc1)C(N)=O (stereo partly drawn) [compound 1]
[2]
  solubility at 15 min: > 41000 µM
[3]; buffer, pH 4
  Hydrolysis half-life: >720 h
[3]; buffer, pH 4, Hydrolysis half-life
  half-life: > 720 h
[3]; buffer, pH 7.4
  Hydrolysis half-life: 146 h
[3]; buffer, pH 7.4, Hydrolysis half-life
  half-life: 78 h
[4]
  solubility at 15 min: > 37000 µM

## CC(=O)N[C@@H]1[C@@H](O)[C@H](O[C@@H]2O[C@H](CO)[C@@H](O[C@@H]3O[C@H](CO[C@H]4O[C@H](CO)[C@@H](O)[C@H](O)[C@@H]4O[C@@H]4O[C@H](CO)[C@@H](O[C@@H]5O[C@H](CO)[C@H](O)[C@H](O)[C@H]5O)[C@H](O)[C@H]4NC(C)=O)[C@@H](O)[C@H](O[C@H]4O[C@H](CO)[C@@H](O)[C@H](O)[C@@H]4O[C@@H]4O[C@H](CO)[C@@H](O[C@@H]5O[C@H](CO)[C@H](O)[C@H](O)[C@H]5O)[C@H](O)[C@H]4NC(C)=O)[C@@H]3O)[C@H](O)[C@H]2NC(C)=O)[C@@H](CO)O[C@H]1NC(=O)CSCCSC(=O)[C@H](CC(C)C)NC(=O)[C@H](CC(C)C)NC(=O)[C@H](C)NC(=O)[C@H](CC(C)C)NC(=O)[C@H](CC(C)C)NC(=O)[C@H](CC(C)C)NC(=O)CNC(=O)[C@H](Cc1c[nH]c2ccccc12)NC(=O)[C@@H](N)CCCNC(=N)N [compound 20]
[5]; Solubility (mg/mL)
  solubility at 15 min: ≥ 77.4 mg/mL
[5]; Solubility (μM)
  solubility at 15 min: > 28000 µM
[3]; [7]
  half-life: > 720 h
[3]; [8]
  half-life: 576 h
[3]; buffer, pH 7.4, Hydrolysis half-life, PBS (pH 7.4), 4° C.
  half-life: 230 h
[3]; [9]
  half-life: 120 h
[3]; [10]
  half-life: 32 h

## CC(=O)N[C@@H]1[C@@H](O)[C@H](O[C@@H]2O[C@H](CO)[C@@H](O[C@@H]3O[C@H](CO[C@H]4O[C@H](CO)[C@@H](O)[C@H](O)[C@@H]4O[C@@H]4O[C@H](CO)[C@@H](O[C@@H]5O[C@H](CO[C@]6(C(=O)O)C[C@H](O)[C@@H](NC(C)=O)[C@H]([C@H](O)[C@H](O)CO)O6)[C@H](O)[C@H](O)[C@H]5O)[C@H](O)[C@H]4NC(C)=O)[C@@H](O)[C@H](O[C@H]4O[C@H](CO)[C@@H](O)[C@H](O)[C@@H]4O[C@@H]4O[C@H](CO)[C@@H](O[C@@H]5O[C@H](CO[C@]6(C(=O)O)C[C@H](O)[C@@H](NC(C)=O)[C@H]([C@H](O)[C@H](O)CO)O6)[C@H](O)[C@H](O)[C@H]5O)[C@H](O)[C@H]4NC(C)=O)[C@@H]3O)[C@H](O)[C@H]2NC(C)=O)[C@@H](CO)O[C@H]1NC(=O)CSC[C@H](NC(=O)c1ccc(COC(=O)[C@H](CC(C)C)NC(=O)[C@H](CC(C)C)NC(=O)[C@H](C)NC(=O)[C@H](CC(C)C)NC(=O)[C@H](CC(C)C)NC(=O)[C@H](CC(C)C)NC(=O)CNC(=O)[C@H](Cc2c[nH]c3ccccc23)NC(=O)[C@@H](N)CCCNC(=N)N)cc1)C(N)=O [compound 8]
[5]; Solubility (mg/mL)
  solubility at 15 min: ≥ 121 mg/mL
[5]; Solubility (μM)
  solubility at 15 min: > 47000 µM
[6]; Solubility (mg/mL)
  solubility at 15 min: ≥ 104 mg/mL
[6]; Solubility (μM)
  solubility at 15 min: > 34000 µM
[3]; [7]
  half-life: > 720 h
[3]; [8]
  half-life: > 720 h
[3]; [9]
  half-life: 121 h
[3]; [10]
  half-life: 106 h

## CC(=O)N[C@@H]1[C@@H](O)[C@H](O[C@@H]2O[C@H](CO)[C@@H](O[C@@H]3O[C@H](CO[C@H]4O[C@H](CO)[C@@H](O)[C@H](O)[C@@H]4O[C@@H]4O[C@H](CO)[C@@H](O[C@@H]5O[C@H](CO)[C@H](O)[C@H](O)[C@H]5O)[C@H](O)[C@H]4NC(C)=O)[C@@H](O)[C@H](O[C@H]4O[C@H](CO)[C@@H](O)[C@H](O)[C@@H]4O[C@@H]4O[C@H](CO)[C@@H](O[C@@H]5O[C@H](CO)[C@H](O)[C@H](O)[C@H]5O)[C@H](O)[C@H]4NC(C)=O)[C@@H]3O)[C@H](O)[C@H]2NC(C)=O)[C@@H](CO)O[C@H]1NC(=O)C[C@H](NC(=O)Cc1ccc(SC(=O)[C@H](CC(C)C)NC(=O)[C@H](CC(C)C)NC(=O)[C@H](C)NC(=O)[C@H](CC(C)C)NC(=O)[C@H](CC(C)C)NC(=O)[C@H](CC(C)C)NC(=O)CNC(=O)[C@H](Cc2c[nH]c3ccccc23)NC(=O)[C@@H](N)CCCNC(=N)N)cc1)C(=O)NCC(N)=O [compound 21]
[5]; water, Solubility (mg/mL)
  solubility at 15 min: ≥ 76.7 mg/mL
[5]; water, Solubility (μM)
  solubility at 15 min: > 26000 µM
[3]; PBS, pH 7.4, Hydrolysis half-life, PBS (pH 7.4), 4° C.
  half-life: 66 h
[3]; PBS, pH 7.4, Hydrolysis half-life, PBS (pH 7.4), 25° C.
  half-life: 25 h
[3]; PBS, pH 7.4, Hydrolysis half-life, PBS (pH 7.4), 37° C.
  half-life: 4 h
[3]; acetate buffer solution, pH 4, Hydrolysis half-life, Acetate buffer solution (pH 4.0), 25° C.
  half-life: 456 h
[3]; acetate buffer solution, pH 4, Hydrolysis half-life, Acetate buffer solution (pH 4.0), 37° C.
  half-life: 240 h
[3]; after hydrolysis test in buffer solution
  Hydrolysis product found by HPLC analysis: production of the unmodified HER2(8-16) peptide (compound 10) was confirmed
